Data: patent EP1637166A2

Experiments:
[1] = target: mouse CCR5 (mCCR5) cloned from B6 mice, transiently expressed on HeLa-MAGI cells (mouse) (UniProt P51682); assay: 0.5 nM 125I-labelled human RANTES on mCCR5-transfected HeLa-MAGI cells, no sera
[2] = target: mouse CCR5 (mCCR5) cloned from B6 mice, transiently expressed on HeLa-MAGI cells (mouse) (UniProt P51682); assay: 0.5 nM 125I-labelled human RANTES on mCCR5-transfected HeLa-MAGI cells in a 1000-fold excess (500 nM) of cold human RANTES

Sequence of UniProt P51682 (P51682 whole entry): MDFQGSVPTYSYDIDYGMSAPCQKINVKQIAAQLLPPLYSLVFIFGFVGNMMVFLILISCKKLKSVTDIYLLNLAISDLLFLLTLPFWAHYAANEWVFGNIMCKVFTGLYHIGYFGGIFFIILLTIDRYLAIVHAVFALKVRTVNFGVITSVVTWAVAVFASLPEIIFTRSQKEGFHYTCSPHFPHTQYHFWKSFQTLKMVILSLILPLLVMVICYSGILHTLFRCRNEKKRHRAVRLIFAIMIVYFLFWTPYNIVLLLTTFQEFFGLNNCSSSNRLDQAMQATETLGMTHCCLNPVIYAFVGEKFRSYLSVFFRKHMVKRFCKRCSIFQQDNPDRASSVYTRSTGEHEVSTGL

Substance: 125I-labelled human RANTES (Amersham) (from UniProt P13501 24-91) (ligand)
- maximally bound iodinated RANTES [1]: 2550 cpm
- non-specific binding of iodinated RANTES [2]: 1300 cpm
